How the values were obtained:
[1] = molecular target: ZFN pair Astr 25ABC + Astr 25FED (synthetic construct, UniProt P14870;P14870 384-579;384-579); assay: Zn; U2OS eGFP disruption, 3 days after nucleofection; details: tags: N-terminal 3xFLAG and SV40 NLS (kept in the assay, left out here); copies: 1;1
[2] = molecular target: ZIM3 reprogrammed with array Tet1 For (synthetic construct, UniProt Q96PE6 1-166); assay: Zn; HEK293T, 7x tetO CMV eGFP reporter
[3] = molecular target: ZIM3 reprogrammed with array Tet2 For (synthetic construct, UniProt Q96PE6 1-166); assay: Zn; HEK293T, 7x tetO CMV eGFP reporter
Chain of ZIM3 reprogrammed with array Tet2 For (Q96PE6 other isoform, or with tags, fused parts or gaps): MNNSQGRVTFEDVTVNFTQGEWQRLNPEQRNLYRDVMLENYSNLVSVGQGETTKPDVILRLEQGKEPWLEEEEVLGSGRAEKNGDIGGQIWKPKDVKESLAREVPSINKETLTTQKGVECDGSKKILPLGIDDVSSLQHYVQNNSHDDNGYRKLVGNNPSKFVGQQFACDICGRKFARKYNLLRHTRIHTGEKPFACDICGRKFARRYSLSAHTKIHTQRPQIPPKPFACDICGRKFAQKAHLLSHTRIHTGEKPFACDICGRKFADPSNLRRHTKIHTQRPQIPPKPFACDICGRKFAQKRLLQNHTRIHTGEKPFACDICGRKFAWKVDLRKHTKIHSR

[4] = molecular target: T1, KLF6 reprogrammed with array Tet2 For (synthetic construct, UniProt Q99612 1-199); assay: Zn; HEK293T, 7x tetO minimal CMV GFP reporter
T1 chain: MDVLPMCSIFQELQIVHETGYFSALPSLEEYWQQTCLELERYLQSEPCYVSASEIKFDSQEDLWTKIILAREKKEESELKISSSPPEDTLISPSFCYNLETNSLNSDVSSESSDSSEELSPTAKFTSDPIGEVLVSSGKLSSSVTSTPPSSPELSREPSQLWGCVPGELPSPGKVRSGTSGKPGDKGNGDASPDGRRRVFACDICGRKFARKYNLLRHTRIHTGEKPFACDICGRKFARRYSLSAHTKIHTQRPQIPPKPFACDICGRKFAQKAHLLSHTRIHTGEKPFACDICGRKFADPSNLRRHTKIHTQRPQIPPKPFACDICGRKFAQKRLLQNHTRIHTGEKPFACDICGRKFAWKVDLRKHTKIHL

[5] = molecular target: T2, KLF6 reprogrammed with array Tet1 For (synthetic construct, UniProt Q99612 1-199); assay: Zn; HEK293T, 7x tetO minimal CMV GFP reporter
T2 chain: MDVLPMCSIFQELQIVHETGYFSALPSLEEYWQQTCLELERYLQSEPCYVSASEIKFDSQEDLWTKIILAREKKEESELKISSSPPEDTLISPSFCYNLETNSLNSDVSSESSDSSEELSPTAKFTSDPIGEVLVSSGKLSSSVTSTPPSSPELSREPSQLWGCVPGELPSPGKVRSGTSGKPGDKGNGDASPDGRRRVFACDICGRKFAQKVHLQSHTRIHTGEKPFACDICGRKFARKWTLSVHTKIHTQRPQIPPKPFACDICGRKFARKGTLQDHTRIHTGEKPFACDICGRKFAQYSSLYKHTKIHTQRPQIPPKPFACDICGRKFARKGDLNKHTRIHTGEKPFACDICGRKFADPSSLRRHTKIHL

[6] = molecular target: ZFN pair Astr 27ABC + Astr 27FED (synthetic construct, UniProt P14870;P14870 384-579;384-579); assay: Zn; U2OS eGFP disruption, 3 days after nucleofection; details: tags: N-terminal 3xFLAG and SV40 NLS (kept in the assay, left out here); copies: 1;1
[7] = molecular target: ZFN pair Astr 31ABC + Astr 31FED (synthetic construct, UniProt P14870;P14870 384-579;384-579); assay: as above; details: tags: N-terminal 3xFLAG and SV40 NLS (kept in the assay, left out here); copies: 1;1
[8] = molecular target: ZFN pair Astr 30ABC + Astr 30FED (synthetic construct, UniProt P14870;P14870 384-579;384-579); assay: as above; details: tags: N-terminal 3xFLAG and SV40 NLS (kept in the assay, left out here); copies: 1;1
Chain of ZFN pair Astr 30ABC + Astr 30FED (P14870 other isoform, or with tags, fused parts or gaps, chain 1 of 2): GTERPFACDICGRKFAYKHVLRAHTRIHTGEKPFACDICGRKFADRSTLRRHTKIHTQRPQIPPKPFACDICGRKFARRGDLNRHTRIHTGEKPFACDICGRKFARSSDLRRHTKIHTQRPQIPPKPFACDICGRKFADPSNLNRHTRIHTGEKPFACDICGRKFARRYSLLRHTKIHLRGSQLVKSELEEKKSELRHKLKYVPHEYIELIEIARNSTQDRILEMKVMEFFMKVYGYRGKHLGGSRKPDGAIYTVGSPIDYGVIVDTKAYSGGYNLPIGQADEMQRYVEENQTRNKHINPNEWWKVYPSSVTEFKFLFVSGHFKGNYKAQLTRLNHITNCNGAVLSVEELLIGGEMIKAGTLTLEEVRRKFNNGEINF
Chain of ZFN pair Astr 30ABC + Astr 30FED (P14870 other isoform, or with tags, fused parts or gaps, chain 2 of 2): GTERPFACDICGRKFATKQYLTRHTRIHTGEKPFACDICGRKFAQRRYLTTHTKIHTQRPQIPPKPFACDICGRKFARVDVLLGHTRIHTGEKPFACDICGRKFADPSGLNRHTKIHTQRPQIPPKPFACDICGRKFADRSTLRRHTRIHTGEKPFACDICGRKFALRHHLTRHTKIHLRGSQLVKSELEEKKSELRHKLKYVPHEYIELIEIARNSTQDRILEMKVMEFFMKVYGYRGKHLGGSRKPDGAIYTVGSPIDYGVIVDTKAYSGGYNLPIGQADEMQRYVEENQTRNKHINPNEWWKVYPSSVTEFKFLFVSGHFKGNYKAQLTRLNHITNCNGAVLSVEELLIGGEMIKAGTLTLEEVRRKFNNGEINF

[9] = molecular target: ZFN pair Astr 12ABC + Astr 12FED (synthetic construct, UniProt P14870;P14870 384-579;384-579); assay: as above; details: tags: N-terminal 3xFLAG and SV40 NLS (kept in the assay, left out here); copies: 1;1
Chain of ZFN pair Astr 12ABC + Astr 12FED (P14870 other isoform, or with tags, fused parts or gaps, chain 1 of 2): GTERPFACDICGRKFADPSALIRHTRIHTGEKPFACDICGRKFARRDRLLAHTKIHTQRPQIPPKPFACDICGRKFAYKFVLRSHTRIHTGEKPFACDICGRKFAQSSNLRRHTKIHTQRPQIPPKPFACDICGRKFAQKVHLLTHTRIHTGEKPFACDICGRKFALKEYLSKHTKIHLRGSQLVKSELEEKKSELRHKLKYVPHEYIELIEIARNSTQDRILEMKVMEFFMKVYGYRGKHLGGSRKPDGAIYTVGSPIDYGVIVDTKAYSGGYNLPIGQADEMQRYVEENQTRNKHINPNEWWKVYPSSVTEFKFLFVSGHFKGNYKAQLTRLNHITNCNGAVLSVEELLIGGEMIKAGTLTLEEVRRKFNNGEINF
Chain of ZFN pair Astr 12ABC + Astr 12FED (P14870 other isoform, or with tags, fused parts or gaps, chain 2 of 2): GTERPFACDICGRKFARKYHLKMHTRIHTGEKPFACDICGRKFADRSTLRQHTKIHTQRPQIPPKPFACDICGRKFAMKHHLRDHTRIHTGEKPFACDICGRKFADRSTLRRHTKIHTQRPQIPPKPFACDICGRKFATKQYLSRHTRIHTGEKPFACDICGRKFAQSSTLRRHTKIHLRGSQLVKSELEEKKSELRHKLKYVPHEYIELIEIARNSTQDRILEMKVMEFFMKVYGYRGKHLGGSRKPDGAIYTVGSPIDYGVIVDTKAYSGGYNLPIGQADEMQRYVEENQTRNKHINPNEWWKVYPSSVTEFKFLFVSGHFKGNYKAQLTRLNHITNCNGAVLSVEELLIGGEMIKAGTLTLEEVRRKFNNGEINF

[10] = molecular target: ZFN pair Astr 23ABC + Astr 23FED (synthetic construct, UniProt P14870;P14870 384-579;384-579); assay: as above; details: tags: N-terminal 3xFLAG and SV40 NLS (kept in the assay, left out here); copies: 1;1
[11] = molecular target: ZFN pair Astr 20ABC + Astr 20FED (synthetic construct, UniProt P14870;P14870 384-579;384-579); assay: as above; details: tags: N-terminal 3xFLAG and SV40 NLS (kept in the assay, left out here); copies: 1;1
[12] = molecular target: ZFN pair Astr 2ABC + Astr 2FED (synthetic construct, UniProt P14870;P14870 384-579;384-579); assay: as above; details: tags: N-terminal 3xFLAG and SV40 NLS (kept in the assay, left out here); copies: 1;1
Chain of ZFN pair Astr 2ABC + Astr 2FED (P14870 other isoform, or with tags, fused parts or gaps, chain 1 of 2): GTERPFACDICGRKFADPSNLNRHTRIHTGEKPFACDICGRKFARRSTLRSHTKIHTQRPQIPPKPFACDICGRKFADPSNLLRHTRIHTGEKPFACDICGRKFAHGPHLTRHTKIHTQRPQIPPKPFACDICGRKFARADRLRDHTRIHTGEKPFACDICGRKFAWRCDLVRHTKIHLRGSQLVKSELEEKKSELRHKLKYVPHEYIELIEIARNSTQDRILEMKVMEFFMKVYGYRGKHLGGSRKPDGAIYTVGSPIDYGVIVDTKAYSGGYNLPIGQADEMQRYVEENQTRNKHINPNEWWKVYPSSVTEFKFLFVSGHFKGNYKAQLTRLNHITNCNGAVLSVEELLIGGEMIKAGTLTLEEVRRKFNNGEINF
Chain of ZFN pair Astr 2ABC + Astr 2FED (P14870 other isoform, or with tags, fused parts or gaps, chain 2 of 2): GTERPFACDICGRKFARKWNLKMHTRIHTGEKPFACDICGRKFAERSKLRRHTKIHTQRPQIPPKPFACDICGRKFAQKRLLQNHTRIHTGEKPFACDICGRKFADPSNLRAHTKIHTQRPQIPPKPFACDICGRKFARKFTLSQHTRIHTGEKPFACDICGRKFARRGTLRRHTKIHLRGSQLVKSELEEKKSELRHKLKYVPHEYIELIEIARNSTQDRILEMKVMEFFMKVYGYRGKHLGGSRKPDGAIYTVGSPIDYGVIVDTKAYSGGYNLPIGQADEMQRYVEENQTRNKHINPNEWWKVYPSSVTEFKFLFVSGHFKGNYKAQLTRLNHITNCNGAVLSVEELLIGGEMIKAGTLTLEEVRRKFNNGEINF

[13] = molecular target: ZFN pair Astr 18ABC + Astr 18FED (synthetic construct, UniProt P14870;P14870 384-579;384-579); assay: as above; details: tags: N-terminal 3xFLAG and SV40 NLS (kept in the assay, left out here); copies: 1;1
[14] = molecular target: ZFN pair Astr 24ABC + Astr 24FED (synthetic construct, UniProt P14870;P14870 384-579;384-579); assay: as above; details: tags: N-terminal 3xFLAG and SV40 NLS (kept in the assay, left out here); copies: 1;1
[15] = molecular target: ZFN pair Astr 29ABC + Astr 29FED (synthetic construct, UniProt P14870;P14870 384-579;384-579); assay: as above; details: tags: N-terminal 3xFLAG and SV40 NLS (kept in the assay, left out here); copies: 1;1
[16] = molecular target: ZFN pair Astr 22ABC + Astr 22FED (synthetic construct, UniProt P14870;P14870 384-579;384-579); assay: as above; details: tags: N-terminal 3xFLAG and SV40 NLS (kept in the assay, left out here); copies: 1;1
[17] = molecular target: ZFN pair Astr 1ABC + Astr 1FED (synthetic construct, UniProt P14870;P14870 384-579;384-579); assay: as above; details: tags: N-terminal 3xFLAG and SV40 NLS (kept in the assay, left out here); copies: 1;1
[18] = molecular target: ZFN pair Astr 28ABC + Astr 28FED (synthetic construct, UniProt P14870;P14870 384-579;384-579); assay: as above; details: tags: N-terminal 3xFLAG and SV40 NLS (kept in the assay, left out here); copies: 1;1
[19] = molecular target: ZFN pair Astr 10ABC + Astr 10FED (synthetic construct, UniProt P14870;P14870 384-579;384-579); assay: as above; details: tags: N-terminal 3xFLAG and SV40 NLS (kept in the assay, left out here); copies: 1;1
Chain of ZFN pair Astr 10ABC + Astr 10FED (P14870 other isoform, or with tags, fused parts or gaps, chain 1 of 2): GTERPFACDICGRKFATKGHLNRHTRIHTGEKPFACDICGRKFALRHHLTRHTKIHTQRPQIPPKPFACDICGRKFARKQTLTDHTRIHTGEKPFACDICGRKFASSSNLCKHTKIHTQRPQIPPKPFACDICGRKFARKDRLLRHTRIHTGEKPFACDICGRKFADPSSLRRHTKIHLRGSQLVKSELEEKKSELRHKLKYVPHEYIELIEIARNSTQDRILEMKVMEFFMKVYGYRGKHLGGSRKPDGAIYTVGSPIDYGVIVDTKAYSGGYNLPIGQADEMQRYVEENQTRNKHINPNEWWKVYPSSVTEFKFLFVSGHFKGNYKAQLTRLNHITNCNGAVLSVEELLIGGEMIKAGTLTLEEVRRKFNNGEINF
Chain of ZFN pair Astr 10ABC + Astr 10FED (P14870 other isoform, or with tags, fused parts or gaps, chain 2 of 2): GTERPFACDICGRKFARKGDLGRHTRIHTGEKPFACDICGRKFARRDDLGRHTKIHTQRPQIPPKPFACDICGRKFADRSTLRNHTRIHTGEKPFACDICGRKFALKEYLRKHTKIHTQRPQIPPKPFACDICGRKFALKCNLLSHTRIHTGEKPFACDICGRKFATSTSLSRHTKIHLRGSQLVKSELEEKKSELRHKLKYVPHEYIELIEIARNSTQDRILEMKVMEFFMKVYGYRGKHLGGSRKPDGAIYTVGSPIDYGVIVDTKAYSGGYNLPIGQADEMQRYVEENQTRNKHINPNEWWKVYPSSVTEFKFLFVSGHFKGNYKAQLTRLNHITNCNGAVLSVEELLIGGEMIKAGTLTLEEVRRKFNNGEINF

[20] = molecular target: ZFN pair Astr 26ABC + Astr 26FED (synthetic construct, UniProt P14870;P14870 384-579;384-579); assay: as above; details: tags: N-terminal 3xFLAG and SV40 NLS (kept in the assay, left out here); copies: 1;1
Chain of ZFN pair Astr 26ABC + Astr 26FED (P14870 other isoform, or with tags, fused parts or gaps, chain 1 of 2): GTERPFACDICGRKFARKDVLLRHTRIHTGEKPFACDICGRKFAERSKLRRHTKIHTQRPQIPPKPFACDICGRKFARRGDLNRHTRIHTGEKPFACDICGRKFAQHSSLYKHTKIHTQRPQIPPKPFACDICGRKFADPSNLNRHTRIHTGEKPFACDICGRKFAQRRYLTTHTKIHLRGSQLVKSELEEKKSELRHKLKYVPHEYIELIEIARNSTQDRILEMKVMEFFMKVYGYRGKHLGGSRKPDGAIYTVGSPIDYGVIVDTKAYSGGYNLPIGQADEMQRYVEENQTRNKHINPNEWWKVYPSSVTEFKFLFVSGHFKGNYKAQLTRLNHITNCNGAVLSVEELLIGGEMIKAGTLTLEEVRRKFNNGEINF
Chain of ZFN pair Astr 26ABC + Astr 26FED (P14870 other isoform, or with tags, fused parts or gaps, chain 2 of 2): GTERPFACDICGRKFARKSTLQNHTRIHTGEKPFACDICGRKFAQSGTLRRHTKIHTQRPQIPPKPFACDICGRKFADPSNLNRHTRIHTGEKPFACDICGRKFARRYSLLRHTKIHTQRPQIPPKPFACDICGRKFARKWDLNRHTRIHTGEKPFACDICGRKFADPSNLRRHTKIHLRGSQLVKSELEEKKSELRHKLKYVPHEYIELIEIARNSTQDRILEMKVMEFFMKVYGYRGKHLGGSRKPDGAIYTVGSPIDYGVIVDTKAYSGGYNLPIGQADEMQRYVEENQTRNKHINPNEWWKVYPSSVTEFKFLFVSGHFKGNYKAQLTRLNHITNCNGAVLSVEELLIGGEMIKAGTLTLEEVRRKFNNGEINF

Chain of ZFN pair Astr 25ABC + Astr 25FED (P14870 other isoform, or with tags, fused parts or gaps, chain 1 of 2): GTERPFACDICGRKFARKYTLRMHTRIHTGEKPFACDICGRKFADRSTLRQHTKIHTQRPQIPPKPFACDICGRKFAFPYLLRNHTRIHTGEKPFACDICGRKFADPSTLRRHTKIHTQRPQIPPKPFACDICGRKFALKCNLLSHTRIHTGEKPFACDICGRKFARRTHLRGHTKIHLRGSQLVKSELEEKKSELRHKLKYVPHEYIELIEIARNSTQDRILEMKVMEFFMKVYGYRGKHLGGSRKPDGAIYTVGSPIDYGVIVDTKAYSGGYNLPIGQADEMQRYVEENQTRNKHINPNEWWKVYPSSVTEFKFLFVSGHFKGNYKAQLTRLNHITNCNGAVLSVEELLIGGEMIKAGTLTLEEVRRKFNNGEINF
Chain of ZFN pair Astr 25ABC + Astr 25FED (P14870 other isoform, or with tags, fused parts or gaps, chain 2 of 2): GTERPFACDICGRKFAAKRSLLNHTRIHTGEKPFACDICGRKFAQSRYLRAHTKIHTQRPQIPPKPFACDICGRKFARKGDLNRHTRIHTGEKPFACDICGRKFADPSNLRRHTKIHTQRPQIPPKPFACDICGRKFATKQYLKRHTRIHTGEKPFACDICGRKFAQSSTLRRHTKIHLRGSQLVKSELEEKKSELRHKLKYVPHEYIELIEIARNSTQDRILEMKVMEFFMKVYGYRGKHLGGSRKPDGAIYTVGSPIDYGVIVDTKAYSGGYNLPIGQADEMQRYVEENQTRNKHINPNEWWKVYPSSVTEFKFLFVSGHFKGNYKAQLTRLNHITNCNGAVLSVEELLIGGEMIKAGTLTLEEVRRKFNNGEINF

B1: eGFP site 25 (12 fingers) (dsDNA)
DNA 1: GCGAGGGCGAGGGCGATGCCACCTACGGCAAGCTGACCCTGAAGTTCA
DNA 2: TGAACTTCAGGGTCAGCTTGCCGTAGGTGGCATCGCCCTCGCCCTCGC
For B1, the binding signal [1] was ~39 % GFP-negative cells (higher = more activity).

B2: tetO (dsDNA)
DNA 1: GTCTCTATCACTGATAGGGAGA
DNA 2: TCTCCCTATCAGTGATAGAGAC
B2 was tested, and the binding signal [2] was ~0.68 normalised eGFP fluorescence (lower = more activity, repressor), the binding signal [3] was ~0.51 normalised eGFP fluorescence (lower = more activity, repressor) and the binding signal [4] was ~15500 mean GFP fluorescence (higher = more activity). The binding signal [5] was ~9500 mean GFP fluorescence (higher = more activity).

B3: eGFP site 27 (12 fingers) (dsDNA)
DNA 1: TCCTGGGGCACAAGCTGGAGTACAACTACAACAGCCACAACGTCTATA
DNA 2: TATAGACGTTGTGGCTGTTGTAGTTGTACTCCAGCTTGTGCCCCAGGA
For B3, the binding signal [6] was ~46 % GFP-negative cells (higher = more activity).

B4: eGFP site 31 (12 fingers) (dsDNA)
DNA 1: GGCAAGCTGACCCTGAAGTTCATCTGCACCACCGGCAAGCTGCCCGTG
DNA 2: CACGGGCAGCTTGCCGGTGGTGCAGATGAACTTCAGGGTCAGCTTGCC
With B4 the binding signal [7] was ~72 % GFP-negative cells (higher = more activity).

B5: eGFP site 30 (12 fingers) (dsDNA)
DNA 1: CAAGGGCGAGGAGCTGTTCACCGGGGTGGTGCCCATCCTGGTCGAGCT
DNA 2: AGCTCGACCAGGATGGGCACCACCCCGGTGAACAGCTCCTCGCCCTTG
In the case of B5, the binding signal [8] is reported as ~14 % GFP-negative cells (higher = more activity).

B6: eGFP site 12 (12 fingers) (dsDNA)
DNA 1: TGACCCTGAAGTTCATCTGCACCACCGGCAAGCTGCCCGTGCCCTGGC
DNA 2: GCCAGGGCACGGGCAGCTTGCCGGTGGTGCAGATGAACTTCAGGGTCA
For B6, the binding signal [9] was ~43 % GFP-negative cells (higher = more activity).

B7: eGFP site 23 (12 fingers) (dsDNA)
DNA 1: GGCATCGACTTCAAGGAGGACGGCAACATCCTGGGGCACAAGCTGGAG
DNA 2: CTCCAGCTTGTGCCCCAGGATGTTGCCGTCCTCCTTGAAGTCGATGCC
B7 was tested, and the binding signal [10] was ~35 % GFP-negative cells (higher = more activity).

B8: eGFP site 20 (12 fingers) (dsDNA)
DNA 1: TCGAGCTGAAGGGCATCGACTTCAAGGAGGACGGCAACATCCTGGGGC
DNA 2: GCCCCAGGATGTTGCCGTCCTCCTTGAAGTCGATGCCCTTCAGCTCGA
B8 was tested, and the binding signal [11] was ~42 % GFP-negative cells (higher = more activity).

B9: eGFP site 2 (12 fingers) (dsDNA)
DNA 1: AGTTCAGCGTGTCCGGCGAGGGCGAGGGCGATGCCACCTACGGCAAGC
DNA 2: GCTTGCCGTAGGTGGCATCGCCCTCGCCCTCGCCGGACACGCTGAACT
In the case of B9, the binding signal [12] is reported as ~90 % GFP-negative cells (higher = more activity).

B10: eGFP site 18 (12 fingers) (dsDNA)
DNA 1: ACATGAAGCAGCACGACTTCTTCAAGTCCGCCATGCCCGAAGGCTACG
DNA 2: CGTAGCCTTCGGGCATGGCGGACTTGAAGAAGTCGTGCTGCTTCATGT
With B10 the binding signal [13] was ~71 % GFP-negative cells (higher = more activity).

B11: eGFP site 24 (12 fingers) (dsDNA)
DNA 1: ACAACGTCTATATCATGGCCGACAAGCAGAAGAACGGCATCAAGGTGA
DNA 2: TCACCTTGATGCCGTTCTTCTGCTTGTCGGCCATGATATAGACGTTGT
B11 was tested, and the binding signal [14] was ~52 % GFP-negative cells (higher = more activity).

B12: eGFP site 29 (12 fingers) (dsDNA)
DNA 1: CGGCCACAAGTTCAGCGTGTCCGGCGAGGGCGAGGGCGATGCCACCTA
DNA 2: TAGGTGGCATCGCCCTCGCCCTCGCCGGACACGCTGAACTTGTGGCCG
In the case of B12, the binding signal [15] is reported as ~40 % GFP-negative cells (higher = more activity).

B13: eGFP site 22 (12 fingers) (dsDNA)
DNA 1: CAAGTTCAGCGTGTCCGGCGAGGGCGAGGGCGATGCCACCTACGGCAA
DNA 2: TTGCCGTAGGTGGCATCGCCCTCGCCCTCGCCGGACACGCTGAACTTG
With B13 the binding signal [16] was ~73 % GFP-negative cells (higher = more activity).

B14: eGFP site 1 (12 fingers) (dsDNA)
DNA 1: GAGGAGCTGTTCACCGGGGTGGTGCCCATCCTGGTCGAGCTGGACGGC
DNA 2: GCCGTCCAGCTCGACCAGGATGGGCACCACCCCGGTGAACAGCTCCTC
With B14 the binding signal [17] was ~85 % GFP-negative cells (higher = more activity).

B15: eGFP site 28 (12 fingers) (dsDNA)
DNA 1: TCCAGGAGCGCACCATCTTCTTCAAGGACGACGGCAACTACAAGACCC
DNA 2: GGGTCTTGTAGTTGCCGTCGTCCTTGAAGAAGATGGTGCGCTCCTGGA
B15 was tested, and the binding signal [18] was ~32 % GFP-negative cells (higher = more activity).

B16: eGFP site 10 (12 fingers) (dsDNA)
DNA 1: TGCCACCTACGGCAAGCTGACCCTGAAGTTCATCTGCACCACCGGCAA
DNA 2: TTGCCGGTGGTGCAGATGAACTTCAGGGTCAGCTTGCCGTAGGTGGCA
For B16, the binding signal [19] was ~78 % GFP-negative cells (higher = more activity).

B17: eGFP site 26 (12 fingers) (dsDNA)
DNA 1: CCGCGCCGAGGTGAAGTTCGAGGGCGACACCCTGGTGAACCGCATCGA
DNA 2: TCGATGCGGTTCACCAGGGTGTCGCCCTCGAACTTCACCTCGGCGCGG
B17 was tested, and the binding signal [20] was ~47 % GFP-negative cells (higher = more activity).

Source: article PMC10421740, “A universal deep-learning model for zinc finger design enables transcription factor reprogramming”
